Results taken from the supplement of paper PMC7125110.
± gives the standard error. Variants at the floor of the assay were thinned out.

B1: glmS ribozyme (parent)
chain: AUAAAAGCGCCAGAACUACAGAAAUGUAGUUGACGAGGAGGAGGUUUAUCGAAUUUUCGGCGGAUGCCUCCAAA

How the values were obtained:
Settings in all cases: with glucosamine-6-phosphate
glucosamine-6-phosphate [1] = variants of: B1; assay: self-cleavage kobs at 640 uM GlcN6P; higher = faster cleavage; RNA array
Procedure, shortened: (§1)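 Glucosamine-6-phosphate (40 μM to 10 mM) in HEPES/KCl/Mg(OAc)2 buffer was flowed over sequenced MiSeq chips, and tiles were imaged over ~14 h. Barcoded ribozyme variants there had been transcribed in situ by E. coli RNA polymerase and were tracked through a hybridised Cy3 probe at 37 °C. One- or two-exponential decay fits to per-tile medians, normalised to baseline and to non-cleaving reference variants, gave kobs. kcat and KM came from weighted Michaelis–Menten fits across concentrations.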

glucosamine-6-phosphate [2] = variants of: B1; assay: self-cleavage kobs at 2500 uM GlcN6P; higher = faster cleavage; RNA array
Procedure, shortened: as §1

glucosamine-6-phosphate [3] = variants of: B1; assay: self-cleavage kobs at 10000 uM GlcN6P; higher = faster cleavage; RNA array
Procedure, shortened: as §1

| Variant | self-cleavage kobs at 640 uM GlcN6P (glucosamine-6-phosphate [1]) | self-cleavage kobs at 2500 uM GlcN6P (glucosamine-6-phosphate [2]) | self-cleavage kobs at 10000 uM GlcN6P (glucosamine-6-phosphate [3]) |
| --- | --- | --- | --- |
| AUAAAAGCGCCAGAGCUACAGAAAUGUAGUUGACGUGGAGUAGGUUUAUCGAAUUUUCGGCGGAUGCCUUCAAA [A15G A36U G41U C70U] | < 1e-05 s⁻¹ | < 1e-05 s⁻¹ | – |
| AUAAAAGCGCCAGAUCUACAGAAAUGUAGUUGGCGAGGAGUAGGUUUAUCGAAUUUUCGGCGGAUGCCUCCAAA [A15U A33G G41U] | < 1e-05 s⁻¹ | – | – |
| AUAAAAGCGCCAGAGCUACAGAAAUGUAGUUGACGAGGAGGAGGUUUAGCGAAUUUUCGGCGGAGGCCUACAAA [A15G U49G U65G C70A] | 0.00349 ± 0.0014 s⁻¹ | – | – |
| AUAAAAGCGCCAGAUCUACAGAAAUGUCGUUGUCGAGGAGGAGGUUUAUCGAAUUUUCGGCGGAUGCCUCCAAA [A15U A28C A33U] | < 1e-05 s⁻¹ | – | – |
| AUAAAAGCGCCAGAGCUACAGAAAUGUAGUUGACGAGGAGGAGGUUUUUCGAAUUUUCGGCGGAUGCCUGCAAA [A15G A48U C70G] | 5.16e-05 ± 1.9e-05 s⁻¹ | 6.9e-05 ± 1.6e-05 s⁻¹ | – |
| AUAAAAGCGCCAGAUCUACAGAAAUGUAGUUGACGCGGAGGAGGUUUAUCGAAUUGUCGGCGGAUGCCACCAAA [A15U A36C U56G U69A] | 7.26e-05 ± 3.4e-05 s⁻¹ | – | – |
| AUAAAAGCGCCAGACCUACAGAAAUGUAGUUGACUAGGAGAAGGUUUAUCGAAUUUUCGGCGGACGCAUCCAAA [A15C G35U G41A U65C C68A] | < 1e-05 s⁻¹ | < 1e-05 s⁻¹ | – |
| AUAAAAGCGCCAGAGCUACAGAAAUGUAGUUGACGAGGAGGCGGUUUAUCGAAUUUUCGGCGGCUGCCCCCAAA [A15G A42C A64C U69C] | < 1e-05 s⁻¹ | – | – |
| AUAAAAGCGCCAGAGCUACAGAAAUGUAGUUGACGAGGAUGAGGUUUAUGGAAUUUUCGCCGGAUGCCUCCAAA [A15G G40U C50G G60C] | < 1e-05 s⁻¹ | – | – |
| AUAAAAGCGCCAGAGCUACAGAAAUGUAGUUGACGAGGAGGUGGUUUAUCGAAUUUUCGGCGGAUGCCUCUAAA [A15G A42U C71U] | 7.41e-05 ± 1.8e-05 s⁻¹ | 0.000188 ± 5.3e-05 s⁻¹ | – |
| AUAAAAGCGCCAGAGCUACAGAAAUGUAGUUGACGUGGAGGAGGGGUAUCGAAUUUUCGGCGGGUGCCUCCAAA [A15G A36U U45G U46G A64G] | < 1e-05 s⁻¹ | – | – |
| AUAAAAGCGCCAGAGCUACAGAAAUGUAGUAGACGAGGAGGAGGUUGAUCGAAUUUUCGGCGGAUGCCUCCAAA [A15G U31A U47G] | 0.000471 ± 0.00011 s⁻¹ | 0.00142 ± 0.0005 s⁻¹ | – |
| AUAAAAGCGCCAGAGCUACAGAAAUGUAGUUGACGAGUAGGAGGUUUAUCGAAUUUUCGGCGGAUGCCUCCAAA [A15G G38U] | < 1e-05 s⁻¹ | – | – |
| AUAAAAGCGCCAGAGCUACAGAAAUGUAGUUGACGAGGAGGAGGAUUAUCGAGUUUUCGGCGGAUGCCUCCAAA [A15G U45A A53G] | 0.0131 ± 0.0027 s⁻¹ | – | – |
| AUAAAAGCGCCAGAUCUACAGAAAUGUAGUUGGCGAGGAGGAGUUUUUUCGAAUUUUCGGCGGAUGCCUCCAAA [A15U A33G G44U A48U] | < 1e-05 s⁻¹ | < 1e-05 s⁻¹ | < 1e-05 s⁻¹ |
| AUAAAAGCGCCAGUACUACAGAAAUGUAGGUGACGAGGAAGAGGUUUAUCGAAUUUUCGGCGGAUGCCUCCAAA [A14U U30G G40A] | 0.000126 ± 3.6e-05 s⁻¹ | 0.000424 ± 0.00014 s⁻¹ | – |
| AUAAAAGCGCCAGAUAUACAGAAAUGUAGUUGACGAGGAGGAGGUUUAUCGAAUUUUCGGCGGAUGCCUCUAAA [A15U C16A C71U] | 0.000111 ± 3.7e-05 s⁻¹ | 0.000598 ± 0.00019 s⁻¹ | – |
| AUAAAAGCGCCAGACUUACAGAAAUGUAGUUGACGAGGAGGAGGUUUAUCGAAUUCUCGGCGGAUGCCUCCAAA [A15C C16U U56C] | 7.03e-05 ± 1.8e-05 s⁻¹ | 0.000249 ± 7.3e-05 s⁻¹ | – |
| AUAAAAGCGCCAGAUCUACAGAAAUGUAGUUAACGAGGAGGAGGUGUAUGGAAUUUUCGGCGGAUGCCUCCAAA [A15U G32A U46G C50G] | 8.2e-05 ± 2.3e-05 s⁻¹ | – | – |
| AUAAAAGCGCCAGAGAUACAGAAAUGUAGUUGACGAGGAGGAGGUUUAUCGAAUUUUAGGCGGUUGCCUUCAAA [A15G C16A C58A A64U C70U] | 8e-05 ± 1.9e-05 s⁻¹ | – | – |
| AUAAAAGCGCCAGAUCUACAGAAAUGUAGUUGACGAGGAGGAGGUUUAUAGAAUUUUCGGCGGAUGCUUCCAAA [A15U C50A C68U] | 7.76e-05 ± 2.5e-05 s⁻¹ | – | – |
| AUAAAAGCGCCAGAUCUACAGAAAUGUAGUUGACGAGGAGGAGGUUUAUCGAAUUUUUGGCGGAUGCCACCAAA [A15U C58U U69A] | 0.000113 ± 2.4e-05 s⁻¹ | 0.000115 ± 3.3e-05 s⁻¹ | – |
| AUAAAAGCGCCAGAUCUACAGAAAUGUAGUUGACGGGGAGUAGGUUAAUCGAAUUUUCGGCGGAUGCCUCCAAA [A15U A36G G41U U47A] | < 1e-05 s⁻¹ | – | – |
| AUAAAAGCGCCAGAGCUACAGAAAUGUAGUUGACGAGGAGGAGGUUUAUCGAAUUUUCGGCGGAUUCCUCUAAA [A15G G66U C71U] | 0.000559 ± 0.00011 s⁻¹ | 0.00142 ± 0.00041 s⁻¹ | – |

| Variant | self-cleavage kobs at 640 uM GlcN6P (glucosamine-6-phosphate [1]) | self-cleavage kobs at 2500 uM GlcN6P (glucosamine-6-phosphate [2]) | self-cleavage kobs at 10000 uM GlcN6P (glucosamine-6-phosphate [3]) |
| --- | --- | --- | --- |
| AUAAAAGCGCCAGACGUACAGAAAUGUAGUUGACGAGGAGGAUGUUUAUCGAAUUCUCGGCGGUUGCAUCCAAA [A15C C16G G43U U56C A64U C68A] | < 1e-05 s⁻¹ | – | – |
| AUAAAAGCGCCAGAGCUACAGAAAUGUAUUUGACGAGGAGGAGGUUUAUCGAAUGUUCGGCGGGUGCCUCCAAA [A15G G29U U55G A64G] | 0.000144 ± 2.7e-05 s⁻¹ | – | – |
| AUAAAAGCGCCAGAUCUACAGAAAUGUAGUUGACUAGGCGGAGGUUUAUCGAAUUUUCGGCGGAUGCCUCCAAA [A15U G35U A39C] | < 1e-05 s⁻¹ | < 1e-05 s⁻¹ | – |
| AUAAAAGCGCCAGACCUACAGAAAUGUAGUUGACGAAGAGGGGGUUUAUCGAAUUUUCGGCGGAUGCCUCCAAA [A15C G37A A42G] | 8.69e-05 ± 3e-05 s⁻¹ | 0.000171 ± 4.6e-05 s⁻¹ | – |
| AUAAAAGCGCCAGACCUACAGAAAUGUAGUCGGCGAGAAGGAGGUUUAUCGAAUUUUCGGCGGAUGCCUCCAAA [A15C U31C A33G G38A] | < 1e-05 s⁻¹ | – | < 1e-05 s⁻¹ |
| AUAAAAGCGCCAGACCUACAGAAAUGUAGUUUACGAGGAGGAGGUUUAUCGAAUGUUGGGCGGAUGCCGCCAAA [A15C G32U U55G C58G U69G] | 0.000909 ± 0.00036 s⁻¹ | – | – |
| AUAAAAGCGCCAGAGAUACAGAAAUGUAGAUGACGAGGAGGAGGUUUAUCGAAUUUUCGGCGGGUGCCUCCAAA [A15G C16A U30A A64G] | 0.000408 ± 0.00011 s⁻¹ | 0.00162 ± 0.00041 s⁻¹ | – |
| AUAAAAGCGCCAGAUCUACAGAAAUGUAGUUGACGAGGAGGCGGUUUAUCGAAUUUUCGGCGGAUGUCUGCAAA [A15U A42C C67U C70G] | < 1e-05 s⁻¹ | < 1e-05 s⁻¹ | – |
| AUAAAAGCGCCAGAUCUACAGAAAUGUAGUUGACAAGGAGGAGGUUUAUCGAAUUUUCGGCGGAUGCUUCCAAA [A15U G35A C68U] | < 1e-05 s⁻¹ | < 1e-05 s⁻¹ | – |
| AUAAAAGCGCCAGAGCUACAGAAAUGUAGUUGACGAGGAGGAGGUUUAUCCGAUUUUCGGCAGAUGCCUCCAAA [A15G G51C A52G G62A] | < 1e-05 s⁻¹ | < 1e-05 s⁻¹ | – |
| AUAAAAGCGCCAGAGCUACAGAAAUGUAGUUGACGAGGAGGAGGCUUAUCGAAUUUCCGGCGGAUGCCUCCAAA [A15G U45C U57C] | < 1e-05 s⁻¹ | – | – |
| AUAAAAGCGCCAGUACUACAGAAAUGUAGUCGACGAGGCGGAGGUUUAUCGAAUUUUCGGCGGAUGCCUCCAAA [A14U U31C A39C] | 7.42e-05 ± 1.4e-05 s⁻¹ | 0.000324 ± 6.8e-05 s⁻¹ | 0.000464 ± 6e-05 s⁻¹ |
| AUAAAAGCGCCAGACCUACAGAAAUGUAGUUGAUGAGGAGGAGGUUUAUCGAAUUUUCGGCGGAUCCCUCCAAA [A15C C34U G66C] | < 1e-05 s⁻¹ | < 1e-05 s⁻¹ | – |
| AUAAAAGCGCCAGACUUACAGAAAUGUAGUUGACGAGGAGGAGGAUUAUCGAAUUUUCGGCGGAUGCCUCCAAA [A15C C16U U45A] | 0.000911 ± 0.00018 s⁻¹ | 0.00147 ± 0.00058 s⁻¹ | – |
| AUAAAAGCGCCAGAUCUACAGAAAUGUAGUUGACGAGGAGGAGGUUUAUGGAAUUUUCGGCGGAUCCCUCGAAA [A15U C50G G66C C71G] | 7.22e-05 ± 2.8e-05 s⁻¹ | 9.27e-05 ± 3e-05 s⁻¹ | – |
| AUAAAAGCGCCAGAGCUACAGAAAUGUAGAUGACGAGGAGGAGGUUUAUCGAAUUUUCGGCGGAUGACUUCAAA [A15G U30A C67A C70U] | 0.000654 ± 0.00016 s⁻¹ | 9.99e-05 ± 4.6e-05 s⁻¹ | 0.00115 ± 0.00026 s⁻¹ |
| AUAAAAGCGCCAGACCUACAGAAAUGUAGUUGACGACGAGGAGGUUUAUCGAAUUUUCGGCGGAUGCCUCCAAA [A15C G37C] | < 1e-05 s⁻¹ | – | – |
| AUAAAAGCGCCAGAGCUACAGAAAUGUAGUCGCCGAGGAGGAGGUUUAUCGUACUUUCGGCGGAUGCCUCCAAA [A15G U31C A33C A52U U54C] | < 1e-05 s⁻¹ | < 1e-05 s⁻¹ | – |
| AUAAAAGCGCCAGAGCUACAGAAAUGUAGUUGAAGAGGAGGAGGUUUAUCGAAUUUUCGGCGGCUGCCUCCAAA [A15G C34A A64C] | < 1e-05 s⁻¹ | – | – |
| AUAAAAGCGCCAGAUCUACAGAAAUGUAGUUGACGAGGAGGAGGUUUAUCGUAUUUUCGGCGGAUCCCUCUAAA [A15U A52U G66C C71U] | < 1e-05 s⁻¹ | – | – |
| AUAAAAGCGCCAGAUCUACAGAAAUGUAGUUGUCGAGGAGGAGGUUUAUCGAAUUUUCGGCGGAUGCCUUCAAA [A15U A33U C70U] | < 1e-05 s⁻¹ | – | – |
| AUAAAAGCGCCAGUACUACAGAAAUGUAGUUGACGAGGAGGAGGUUUAUCGAAUUUUCGGCUGAUGCCACCAAA [A14U G62U U69A] | < 1e-05 s⁻¹ | – | – |
| AUAAAAGCGCCAGUACUACAGAAAUGUAGUUGACGAGGAGGAGGUGUAUCGAAUUUUCGACGGAUGCCUCAAAA [A14U U46G G60A C71A] | < 1e-05 s⁻¹ | – | – |
| AUAAAAGCGCCAGAGCUACAGAAAUGUAGUUGACGAGUAGGAGGUUUAUCGAAUUUUCCGCGGAUGCCUCCAAA [A15G G38U G59C] | < 1e-05 s⁻¹ | – | – |
